Results reported in patent publication US20210060072A1 (CRISPR THERAPEUTICS, published 2021).

Target: T1, CD70 on CD70-expressing cancer cell lines (A498, ACHN, SK-OV-3, Hs-766T, NCI-H1975, Calu-1, DU 145, MM.1S, … (human, UniProt P32970 1-193))
T1 sequence (looked up): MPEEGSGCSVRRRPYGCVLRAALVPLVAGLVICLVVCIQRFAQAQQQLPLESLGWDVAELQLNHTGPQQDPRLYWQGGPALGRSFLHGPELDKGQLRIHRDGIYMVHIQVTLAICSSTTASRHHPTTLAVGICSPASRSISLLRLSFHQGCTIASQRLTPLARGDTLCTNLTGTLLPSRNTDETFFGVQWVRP
Test: cell-based or functional assay

B1: anti-CD70 CAR (CD70B scFv with 41BB; CD8 transmembrane domain, 41BB co-stimulatory domain, CD3z signaling domain) (other)
chain: QVQLVQSGAEVKKPGASVKVSCKASGYTFTNYGMNWVRQAPGQGLKWMGWINTYTGEPTYADAFKGRVTMTRDTSISTAYMELSRLRSDDTAVYYCARDYGDYGMDYWGQGTTVTVSSGGGGSGGGGSGGGGSGDIVMTQSPDSLAVSLGERATINCRASKSVSTSGYSFMHWYQQKPGQPPKLLIYLASNLESGVPDRFSGSGSGTDFTLTISSLQAEDVAVYYCQHSREVPWTFGQGTKVEIKSAAAFVPVFLPAKPTTTPAPRPPTPAPTIASQPLSLRPEACRPAAGGAVHTRGLDFACDIYIWAPLAGTCGVLLLSLVITLYCNHRNRKRGRKKLLYIFKQPFMRPVQTTQEEDGCSCRFPEEEEGGCELRVKFSRSADAPAYQQGQNQLYNELNLGRREEYDVLDKRRGRDPEMGGKPRRKNPQEGLYNELQKDKMAEAYSEIGMKGERRRGKGHDGLYQGLSTATKDTYDALHMQALPPR
  cell killing, 24 hours of co-culture, A498, ACHN, SK-OV-3 and Hs-766T cells, 1:1 effector:target cell ratio (3xKO and 4xKO CD70 CAR+ T cells): > 50%
  cell killing, 24 hours of co-culture, A498, ACHN, SK-OV-3 and Hs-766T cells, 4:1 effector:target cell ratio (3xKO and 4xKO CD70 CAR+ T cells): > 60%
  cell killing, 24 hours of co-culture, NCI-H1975, Calu-1 and DU 145 cells, 4:1 effector:target cell ratio: > 30%
  cell killing, 96 hours of co-culture, SKOV-3, Hs-766T and NIC-H1975 cells, 1:1 effector:target cell ratio: > 80%
